Results on three molecules are retold here after US20200157194A1 (Regeneron, published 2020).

Changes are numbered by the printed parent chain.

The target of assay [1] is T1, recombinant human GREM1 (hGREM1-His; C-terminal 10His tagged, R&D, #5190-GR) (human, UniProt O60565 25-184).
T1 construct: range 25-184; also called recombinant human GREM1 with a C-terminal decahistidine tag
T1 sequence: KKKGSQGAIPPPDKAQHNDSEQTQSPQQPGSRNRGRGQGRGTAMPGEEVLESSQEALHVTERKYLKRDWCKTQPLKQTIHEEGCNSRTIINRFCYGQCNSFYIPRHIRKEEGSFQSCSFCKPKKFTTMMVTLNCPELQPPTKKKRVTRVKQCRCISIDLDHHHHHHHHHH
The assay is described as follows: BLI Octet, mAb captured, 100 nM GREM1 without vs with 5 uM heparin.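 Note: octet Red96 biolayer interferometry at 25 °C, antibodies captured on anti-human IgG Fc biosensors, association of GREM1 measured with versus without heparin in HEPES-buffered saline, pH 7.4.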

The target in assay [2] is T2, human GREM1 (hGREM1-His; SEQ ID NO: 595) (human, UniProt O60565 25-184).
T2 construct: also called biotin-hGREM1-His; recombinant human GREM1 protein
T2 sequence: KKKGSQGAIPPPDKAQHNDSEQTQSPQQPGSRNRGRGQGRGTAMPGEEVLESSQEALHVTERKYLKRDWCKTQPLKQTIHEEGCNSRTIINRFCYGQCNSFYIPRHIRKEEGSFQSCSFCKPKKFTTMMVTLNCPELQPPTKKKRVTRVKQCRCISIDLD
The assay is described as follows: SPR, Biacore T200, 37 C, mAb captured, hGREM1-His injected. (In general: Surface plasmon resonance follows binding to a sensor surface in real time, without labels.)

Assay [3] has as its target T1, recombinant human GREM1 (hGREM1-His; …). The assay is described as follows: BLI Octet, mAb captured, 100 nM GREM1.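 Note: octet Red96 biolayer interferometry at 25 °C in pH 7.4 HEPES saline buffer, antibodies held on anti-human IgG Fc capture biosensors, then exposed to GREM1.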
Assay [4] shares this target. The assay is described as follows: cell-based or functional assay.
Assay [5] addresses T2, human GREM1 (hGREM1-His; SEQ ID NO: 595). As to the kind of experiment: SPR, Biacore T200, 25 C, mAb captured, hGREM1-His injected.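 Note: Heparin-supplemented HBS-EP+ used as running buffer, association and dissociation phases followed, Kd computed as koff divided by kon and half-life derived from koff.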
Assay [6] has the same target. The assay is described as follows: competition ELISA, biotin-hGREM1-His (100 pM) binding to coated hBMP4.
Assay [7] has as its target T1, recombinant human GREM1 (hGREM1-His; …). The assay is described as follows: BLI Octet, mAb captured, 100 nM GREM1 + 5 uM heparin.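 Note: octet Red96 biolayer interferometry at 25 °C, antibodies captured on anti-human IgG Fc biosensors, pH 7.4 HEPES buffer with 0.1 mg/mL BSA.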 In general terms: BLI is a label-free optical method that tracks binding on a fibre tip over time.
The target is the same in assay [8]. As to the kind of experiment: cell-based or functional assay. The source holds these as a separate data set.

B1: H4H2926N (antibody, human IgG4, V domains shown)
VH: EVQLVESGGGLVQTGRSLRLSCAASGFTFDDYAMNWVRQAPGKGLEWVSGISWNSGNIGYADSVKGRFTISRDNAKNSLYLQMNSLRAEDTALYYCVKYIGQQLVQDYFDYWGQGTLVTVSS
VL: DIQMTQSPSSLSASVGDRVTITCQASQDITNYLNWYQQRPGKAPKLLIYDAFNLERGVPSRFSGSGYGTYFTFTISSLQPEDIAIYYCQQYDNLPLTFGGGTKVEIE
notes: H4H prefix = human IgG4 Fc
As for B1, in assay [1], the “Reduction in Signal from Heparin at 30 sec” value (“Reduction … at 30 sec” below) amounted to 0.16 nm and the “Reduction in Signal from Heparin at 300 sec” value (shortened to “Reduction … at 300 sec”) amounted to 0.07 nm. Also, in assay [2], binding was put at a Kd of 11.1 nM; the koff (commonly the rate constant with which the complex falls apart) amounted to 0.0014 s⁻¹; the association rate constant (kon) (as a rule, the second-order rate constant of association) is 126000 M⁻¹ s⁻¹; the t1/2 is 8 min. Also, in assay [3], the “Binding Signal with 30 sec Association” value stood at 0.23 nm and the “Binding Signal with 300 sec Association” value was 0.49 nm. Besides, the “IC50 [M], inhibition of hGREM1-His, W-20-17/BRE-luc luciferase (100 pM hBMP4, 10 nM hGREM1-His)” value (from here on “IC50 [M], inhibition of hGREM1-His”) in assay [4] stood at 1.2e-09 M. Further, in assay [5], the affinity, expressed as Kd, was 5.52 nM; the koff was 0.000502 s⁻¹; the kon amounted to 91000 M⁻¹ s⁻¹; the t1/2 turned out to be 23 min. Further, in assay [6], the “% blocked at maximum Ab tested (20 nM)” value stood at 93% and the half-maximal inhibitory concentration (IC50) – broadly, the midpoint of a concentration-inhibition curve – came to 0.052 nM. In assay [7], the “Binding Signal with 30 sec Association” value was 0.07 nm and the “Binding Signal with 300 sec Association” value came to 0.42 nm. For the same molecule, in assay [8], the “hGREM1-His Inhibition IC50, M; W-20-17 cell differentiation assay (alkaline phosphatase)” value stood at 13 nM.

B2: H4H6236P (antibody, human IgG4, V domains shown)
VH: QVQLVQSGAEVKKPGASVKVSCKVSGYTLTELSMHWVRQAPGKGLEWMGGFDPEDGETIYAQKFQGRVTMTEDTSTETAYMELSSLRSEDTAVYYCATDDYDILTDYPYNMDVWGQGTTVTVSS
VL: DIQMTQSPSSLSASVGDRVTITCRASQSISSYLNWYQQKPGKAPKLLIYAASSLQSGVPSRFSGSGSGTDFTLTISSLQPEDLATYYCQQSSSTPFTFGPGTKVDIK
notes: H4H prefix = human IgG4 Fc
On to B2, for which, in assay [1], the “Reduction … at 30 sec” value amounted to 0.28 nm and the “Reduction … at 300 sec” value worked out at 0.02 nm. In assay [2], binding was put at a Kd of 2.63 nM, the dissociation rate constant (koff) was 0.000245 s⁻¹, the on-rate constant (kon) was 93000 M⁻¹ s⁻¹ and the t1/2 amounted to 47 min. In assay [3], the “Binding Signal with 30 sec Association” value was 0.33 nm and the “Binding Signal with 300 sec Association” value is 0.45 nm. Further, the “IC50 [M], inhibition of hGREM1-His” value in assay [4] worked out at 5.4e-10 M. In addition, in assay [5], binding was characterised by a dissociation constant (Kd) of 2.99 nM, the koff was 0.000125 s⁻¹, the kon worked out at 42000 M⁻¹ s⁻¹ and the t1/2 came out at 92 min. Further, in assay [6], the “% blocked at maximum Ab tested (20 nM)” value was determined as 95% and the IC50 was less than 0.025 nM. In assay [7], the “Binding Signal with 30 sec Association” value is 0.05 nm and the “Binding Signal with 300 sec Association” value was found to be 0.43 nm. The “hGREM1-His Inhibition IC50, M; W-20-17 cell differentiation assay (alkaline phosphatase)” value in assay [8] is 3.9 nM.

B3: H4H6232P (antibody, human IgG4, V domains shown)
VH: B2 VH with V68L, E77D, D106S
VL: DIQMTQSPSSLSASVGDRVTITCRASQSINNYLNWYQQKPGKAPKLLIYAASSLQSGVPSRFSGSGSGTDFTLTISSLQPEDFGTYYCQQSDSTPFTFGPGTKVDIK
notes: H4H prefix = human IgG4 Fc
Turning to B3, in assay [1], the “Reduction … at 30 sec” value stood at 0.27 nm and the “Reduction … at 300 sec” value amounted to 0.02 nm. Moreover, in assay [2], the equilibrium dissociation constant (Kd) (in general, the free concentration of one partner at which half of the binding sites on the other are occupied at equilibrium, for simple one-to-one binding) was 1.73 nM; the koff is 0.000195 s⁻¹; the association rate constant (kon) was determined as 113000 M⁻¹ s⁻¹; the t1/2 is 59 min. Moreover, in assay [3], the “Binding Signal with 30 sec Association” value worked out at 0.33 nm and the “Binding Signal with 300 sec Association” value came to 0.48 nm. In addition, the “IC50 [M], inhibition of hGREM1-His” value in assay [4] was 7.8e-10 M. In assay [5], this molecule displayed a Kd of 1.25 nM, an off-rate (koff) of 9.6e-05 s⁻¹, a kon of 76800 M⁻¹ s⁻¹ and a t1/2 of 120 min. In addition, in assay [6], the “% blocked at maximum Ab tested (20 nM)” value stood at 93% and the IC50 is less than 0.025 nM. In assay [7], the “Binding Signal with 30 sec Association” value is 0.06 nm and the “Binding Signal with 300 sec Association” value amounted to 0.46 nm. Moreover, the “hGREM1-His Inhibition IC50, M; W-20-17 cell differentiation assay (alkaline phosphatase)” value in assay [8] was 4.5 nM.
